Test results from ChEMBL document CHEMBL3526031, “Mechanistic studies on the absorption and disposition of scutellarin in humans: selective OATP2B1-mediated hepatic uptake is a likely key determinant for its unique pharmacokinetic characteristics” (Drug Metab Dispos, 2012).

Tests used:
Homo sapiens = test: Drug level in human assessed as retention time treated with 40 mg, po of scutellarin measured up to 20 hrs by mass defect filter chromatogram analysis; format: ADME, organism-based
[1] = substrate: O=c1cc(-c2ccc(O)cc2)oc2cc(O)c(O)c(O)c12; test: Drug metabolism assessed as human recombinant UGT1A6-mediated formation of scutellarein-7-O-glucuronide after 25 mins by HPLC/UV analysis; format: ADME
[2] = substrate: O=c1cc(-c2ccc(O)cc2)oc2cc(O)c(O)c(O)c12; test: Drug metabolism assessed as human recombinant UGT1A9-mediated formation of scutellarein-6-O-glucuronide after 25 mins by HPLC/UV analysis; format: ADME
[3] = substrate: O=c1cc(-c2ccc(O)cc2)oc2cc(O)c(O)c(O)c12; test: Drug metabolism assessed as human recombinant UGT1A9-mediated formation of scutellarein-7-O-glucuronide after 25 mins by HPLC/UV analysis; format: ADME
[4] = substrate: O=c1cc(-c2ccc(O)cc2)oc2cc(O)c(O)c(O)c12; test: Drug metabolism assessed as human recombinant UGT1A10-mediated formation of scutellarein-7-O-glucuronide after 25 mins by HPLC/UV analysis; format: ADME
[5] = substrate: O=c1cc(-c2ccc(O)cc2)oc2cc(O)c(O)c(O)c12; test: Drug metabolism assessed as human recombinant UGT1A10-mediated formation of scutellarein-6-O-glucuronide after 25 mins by HPLC/UV analysis; format: ADME
[6] = substrate: O=C(O)[C@H]1O[C@@H](Oc2c(O)cc3oc(-c4ccc(O)cc4)cc(=O)c3c2O)[C@H](O)[C@@H](O)[C@@H]1O; test: Drug uptake assessed as OATP2B1 (unknown origin)-mediated drug transport expressed in HEK293 cells after 7 mins by LC-MS/MS analysis; format: ADME, cell-based, Homo sapiens
[7] = substrate: O=c1cc(-c2ccc(O)cc2)oc2cc(O)c(O)c(O)c12; test: Drug metabolism assessed as human recombinant UGT1A7-mediated formation of scutellarein-7-O-glucuronide after 25 mins by HPLC/UV analysis; format: ADME
[8] = substrate: O=c1cc(-c2ccc(O)cc2)oc2cc(O)c(O)c(O)c12; test: Drug metabolism assessed as human recombinant UGT1A8-mediated formation of scutellarein-7-O-glucuronide after 25 mins by HPLC/UV analysis; format: ADME
[9] = substrate: O=c1cc(-c2ccc(O)cc2)oc2cc(O)c(O)c(O)c12; test: Drug metabolism assessed as human recombinant UGT1A3-mediated formation of scutellarein-7-O-glucuronide after 25 mins by HPLC/UV analysis; format: ADME
[10] = substrate: O=c1cc(-c2ccc(O)cc2)oc2cc(O)c(O)c(O)c12; test: Drug metabolism assessed as human recombinant UGT2B7-mediated formation of scutellarein-6-O-glucuronide after 25 mins by HPLC/UV analysis; format: ADME

## O=C(O)[C@H]1O[C@@H](Oc2cc3oc(-c4ccc(O)cc4)cc(=O)c3c(O)c2O[C@@H]2O[C@H](C(=O)O)[C@@H](O)[C@H](O)[C@H]2O)[C@H](O)[C@@H](O)[C@@H]1O
Homo sapiens
  Retention_time: 6.02 min

B1: UDP-glucuronosyltransferase 1A6 (Homo sapiens) (protein)
chain: MACLLRSFQRISAGVFFLALWGMVVGDKLLVVPQDGSHWLSMKDIVEVLSDRGHEIVVVVPEVNLLLKESKYYTRKIYPVPYDQEELKNRYQSFGNNHFAERSFLTAPQTEYRNNMIVIGLYFINCQSLLQDRDTLNFFKESKFDALFTDPALPCGVILAEYLGLPSVYLFRGFPCSLEHTFSRSPDPVSYIPRCYTKFSDHMTFSQRVANFLVNLLEPYLFYCLFSKYEELASAVLKRDVDIITLYQKVSVWLLRYDFVLEYPRPVMPNMVFIGGINCKKRKDLSQEFEAYINASGEHGIVVFSLGSMVSEIPEKKAMAIADALGKIPQTVLWRYTGTRPSNLANNTILVKWLPQNDLLGHPMTRAFITHAGSHGVYESICNGVPMVMMPLFGDQMDNAKRMETKGAGVTLNVLEMTSEDLENALKAVINDKSYKENIMRLSSLHKDRPVEPLDLAVFWVEFVMRHKGAPHLRPAAHDLTWYQYHSLDVIGFLLAVVLTVAFITFKCCAYGYRKCLGKKGRVKKAHKSKTH
[1]
  Km: 27 µM
  Vmax: 0.00167 µmol/min/mg
  Vmax/Km: 62 µL/min/mg

B2: UDP-glucuronosyltransferase 1A9 (Homo sapiens) (protein)
chain: MACTGWTSPLPLCVCLLLTCGFAEAGKLLVVPMDGSHWFTMRSVVEKLILRGHEVVVVMPEVSWQLGRSLNCTVKTYSTSYTLEDLDREFKAFAHAQWKAQVRSIYSLLMGSYNDIFDLFFSNCRSLFKDKKLVEYLKESSFDAVFLDPFDNCGLIVAKYFSLPSVVFARGILCHYLEEGAQCPAPLSYVPRILLGFSDAMTFKERVRNHIMHLEEHLLCHRFFKNALEIASEILQTPVTEYDLYSHTSIWLLRTDFVLDYPKPVMPNMIFIGGINCHQGKPLPMEFEAYINASGEHGIVVFSLGSMVSEIPEKKAMAIADALGKIPQTVLWRYTGTRPSNLANNTILVKWLPQNDLLGHPMTRAFITHAGSHGVYESICNGVPMVMMPLFGDQMDNAKRMETKGAGVTLNVLEMTSEDLENALKAVINDKSYKENIMRLSSLHKDRPVEPLDLAVFWVEFVMRHKGAPHLRPAAHDLTWYQYHSLDVIGFLLAVVLTVAFITFKCCAYGYRKCLGKKGRVKKAHKSKTH
[2]
  Km: 10.9 µM
  Vmax: 0.00167 µmol/min/mg
  Vmax/Km: 153 µL/min/mg
[3]
  Km: 5.49 µM
  Vmax: 0.00463 µmol/min/mg
  Vmax/Km: 843 µL/min/mg

B3: UDP-glucuronosyltransferase 1A10 (Homo sapiens) (protein)
chain: MARAGWTSPVPLCVCLLLTCGFAEAGKLLVVPMDGSHWFTMQSVVEKLILRGHEVVVVMPEVSWQLERSLNCTVKTYSTSYTLEDQNREFMVFAHAQWKAQAQSIFSLLMSSSSGFLDLFFSHCRSLFNDRKLVEYLKESSFDAVFLDPFDTCGLIVAKYFSLPSVVFTRGIFCHHLEEGAQCPAPLSYVPNDLLGFSDAMTFKERVWNHIVHLEDHLFCQYLFRNALEIASEILQTPVTAYDLYSHTSIWLLRTDFVLDYPKPVMPNMIFIGGINCHQGKPLPMEFEAYINASGEHGIVVFSLGSMVSEIPEKKAMAIADALGKIPQTVLWRYTGTRPSNLANNTILVKWLPQNDLLGHPMTRAFITHAGSHGVYESICNGVPMVMMPLFGDQMDNAKRMETKGAGVTLNVLEMTSEDLENALKAVINDKSYKENIMRLSSLHKDRPVEPLDLAVFWVEFVMRHKGAPHLRPAAHDLTWYQYHSLDVIGFLLAVVLTVAFITFKCCAYGYRKCLGKKGRVKKAHKSKTH
[4]
  Km: 5.68 µM
  Vmax: 0.000318 µmol/min/mg
  Vmax/Km: 55.9 µL/min/mg
[5]
  Km: 2.74 µM
  Vmax: 3.8e-05 µmol/min/mg
  Vmax/Km: 13.7 µL/min/mg

B4: Solute carrier organic anion transporter family member 2B1 (Homo sapiens) (protein)
chain: MGPRIGPAGEVPQVPDKETKATMGTENTPGGKASPDPQDVRPSVFHNIKLFVLCHSLLQLAQLMISGYLKSSISTVEKRFGLSSQTSGLLASFNEVGNTALIVFVSYFGSRVHRPRMIGYGAILVALAGLLMTLPHFISEPYRYDNTSPEDMPQDFKASLCLPTTSAPASAPSNGNCSSYTETQHLSVVGIMFVAQTLLGVGGVPIQPFGISYIDDFAHNSNSPLYLGILFAVTMMGPGLAFGLGSLMLRLYVDINQMPEGGISLTIKDPRWVGAWWLGFLIAAGAVALAAIPYFFFPKEMPKEKRELQFRRKVLAVTDSPARKGKDSPSKQSPGESTKKQDGLVQIAPNLTVIQFIKVFPRVLLQTLRHPIFLLVVLSQVCLSSMAAGMATFLPKFLERQFSITASYANLLIGCLSFPSVIVGIVVGGVLVKRLHLGPVGCGALCLLGMLLCLFFSLPLFFIGCSSHQIAGITHQTSAHPGLELSPSCMEACSCPLDGFNPVCDPSTRVEYITPCHAGCSSWVVQDALDNSQVFYTNCSCVVEGNPVLAGSCDSTCSHLVVPFLLLVSLGSALACLTHTPSFMLILRGVKKEDKTLAVGIQFMFLRILAWMPSPVIHGSAIDTTCVHWALSCGRRAVCRYYNNDLLRNRFIGLQFFFKTGSVICFALVLAVLRQQDKEARTKESRSSPAVEQQLLVSGPGKKPEDSRV
[6]
  Km: 1.77 µM

B5: UDP-glucuronosyltransferase 1A7 (Homo sapiens) (protein)
chain: MARAGWTGLLPLYVCLLLTCGFAKAGKLLVVPMDGSHWFTMQSVVEKLILRGHEVVVVMPEVSWQLGRSLNCTVKTYSTSYTLEDQDREFMVFADARWTAPLRSAFSLLTSSSNGIFDLFFSNCRSLFNDRKLVEYLKESCFDAVFLDPFDACGLIVAKYFSLPSVVFARGIFCHYLEEGAQCPAPLSYVPRLLLGFSDAMTFKERVWNHIMHLEEHLFCPYFFKNVLEIASEILQTPVTAYDLYSHTSIWLLRTDFVLEYPKPVMPNMIFIGGINCHQGKPVPMEFEAYINASGEHGIVVFSLGSMVSEIPEKKAMAIADALGKIPQTVLWRYTGTRPSNLANNTILVKWLPQNDLLGHPMTRAFITHAGSHGVYESICNGVPMVMMPLFGDQMDNAKRMETKGAGVTLNVLEMTSEDLENALKAVINDKSYKENIMRLSSLHKDRPVEPLDLAVFWVEFVMRHKGAPHLRPAAHDLTWYQYHSLDVIGFLLAVVLTVAFITFKCCAYGYRKCLGKKGRVKKAHKSKTH
[7]
  Km: 33.3 µM
  Vmax: 0.000795 µmol/min/mg
  Vmax/Km: 23.9 µL/min/mg

B6: UDP-glucuronosyltransferase 1A8 (Homo sapiens) (protein)
chain: MARTGWTSPIPLCVSLLLTCGFAEAGKLLVVPMDGSHWFTMQSVVEKLILRGHEVVVVMPEVSWQLGKSLNCTVKTYSTSYTLEDLDREFMDFADAQWKAQVRSLFSLFLSSSNGFFNLFFSHCRSLFNDRKLVEYLKESSFDAVFLDPFDACGLIVAKYFSLPSVVFARGIACHYLEEGAQCPAPLSYVPRILLGFSDAMTFKERVRNHIMHLEEHLFCQYFSKNALEIASEILQTPVTAYDLYSHTSIWLLRTDFVLDYPKPVMPNMIFIGGINCHQGKPLPMEFEAYINASGEHGIVVFSLGSMVSEIPEKKAMAIADALGKIPQTVLWRYTGTRPSNLANNTILVKWLPQNDLLGHPMTRAFITHAGSHGVYESICNGVPMVMMPLFGDQMDNAKRMETKGAGVTLNVLEMTSEDLENALKAVINDKSYKENIMRLSSLHKDRPVEPLDLAVFWVEFVMRHKGAPHLRPAAHDLTWYQYHSLDVIGFLLAVVLTVAFITFKCCAYGYRKCLGKKGRVKKAHKSKTH
[8]
  Km: 19 µM
  Vmax: 0.000673 µmol/min/mg
  Vmax/Km: 35.4 µL/min/mg

B7: UDP-glucuronosyltransferase 1A3 (Homo sapiens) (protein)
chain: MATGLQVPLPWLATGLLLLLSVQPWAESGKVLVVPIDGSHWLSMREVLRELHARGHQAVVLTPEVNMHIKEENFFTLTTYAISWTQDEFDRHVLGHTQLYFETEHFLKKFFRSMAMLNNMSLVYHRSCVELLHNEALIRHLNATSFDVVLTDPVNLCAAVLAKYLSIPTVFFLRNIPCDLDFKGTQCPNPSSYIPRLLTTNSDHMTFMQRVKNMLYPLALSYICHAFSAPYASLASELFQREVSVVDILSHASVWLFRGDFVMDYPRPIMPNMVFIGGINCANRKPLSQEFEAYINASGEHGIVVFSLGSMVSEIPEKKAMAIADALGKIPQTVLWRYTGTRPSNLANNTILVKWLPQNDLLGHPMTRAFITHAGSHGVYESICNGVPMVMMPLFGDQMDNAKRMETKGAGVTLNVLEMTSEDLENALKAVINDKSYKENIMRLSSLHKDRPVEPLDLAVFWVEFVMRHKGAPHLRPAAHDLTWYQYHSLDVIGFLLAVVLTVAFITFKCCAYGYRKCLGKKGRVKKAHKSKTH
[9]
  Km: 7.34 µM
  Vmax: 0.00178 µmol/min/mg
  Vmax/Km: 243 µL/min/mg

B8: UDP-glucuronosyltransferase 2B7 (Homo sapiens) (protein)
chain: MSVKWTSVILLIQLSFCFSSGNCGKVLVWAAEYSHWMNIKTILDELIQRGHEVTVLASSASILFDPNNSSALKIEIYPTSLTKTELENFIMQQIKRWSDLPKDTFWLYFSQVQEIMSIFGDITRKFCKDVVSNKKFMKKVQESRFDVIFADAIFPCSELLAELFNIPFVYSLSFSPGYTFEKHSGGFIFPPSYVPVVMSELTDQMTFMERVKNMIYVLYFDFWFEIFDMKKWDQFYSEVLGRPTTLSETMGKADVWLIRNSWNFQFPYPLLPNVDFVGGLHCKPAKPLPKEMEDFVQSSGENGVVVFSLGSMVSNMTEERANVIASALAQIPQKVLWRFDGNKPDTLGLNTRLYKWIPQNDLLGHPKTRAFITHGGANGIYEAIYHGIPMVGIPLFADQPDNIAHMKARGAAVRVDFNTMSSTDLLNALKRVINDPSYKENVMKLSRIQHDQPVKPLDRAVFWIEFVMRHKGAKHLRVAAHDLTWFQYHSLDVIGFLLVCVATVIFIVTKCCLFCFWKFARKAKKGKND
[10]
  Km: 11.5 µM
  Vmax: 8.9e-05 µmol/min/mg
  Vmax/Km: 7.74 µL/min/mg
